Assay results from patent US20150297458A1, “RAPID RECONSTITUTION PACKAGES FOR MIXING AND DELIVERY OF DRUGS” (Massachusetts Institute of Technology, priority 2012, published 2015).

What was measured:
[1] = ELISA stability characterization of tPA after storage in vial, solution or RRP; type: physicochemical
Experimental: RRPs were initially kept at 20° C., and subsequently subjected to a fixed wall temperature of 65° C. for 3 hours. Samples were kept in 6 different storage conditions for 24 hours prior to assay preparation: (1) Standard Cathflo Activase lyophilized in glass vial at 20° C.; (2) Cathflo Activase reconstituted in Millipore filtered water and kept in glass vial at 20° C.; (3) lyophilized Cathflo Activase loaded into RRPs and kept at 20° C.; (4) Cathflo Activase lyophilized in glass vial at 65° C.; (5) Cathflo Activase reconstituted in Millipore filtered water and stored in glass vial at 65° C., and (6) Cathflo Activase loaded into RRP and kept at 65° C. After 24 hours each sample in lyophilized form, including those stored in the RRP, was reconstituted in 2 mL Millipore water, and apportioned for subsequent use in ELISA, UV-Vis and HPLC assays.
Stability experiments were performed to characterize and compare the RRP with standard vials at various storage conditions. ELISA assays were used to test for stability of samples (Human tPA Platinum ELISA Kit, eBioscience, Inc.) that underwent two temperature conditions, T=20, 65° C. HPLC assays were not sufficient in assaying stability for tPA as the low pH buffer required denatured tPA regardless of conformation or partial denaturation already induced by the storage condition.
The samples to be tested were injected into each ELISA well and left to incubate. After a wash step, a second antibody, horseradish peroxidase (HRP)-conjugated anti-tPA, was injected into each sample well. The HRP-conjugated anti-tPA bound onto the opposing side of the tPA molecule already bound onto the plate-fixed antibody. After a second wash step, a color inducing substrate (TMB substrate) was then injected into the wells, which bound onto the HRP to induce a measureable gradient representing the amount of tPA bound. In order to prevent oversaturation of the antibodies, the samples were diluted to 10 ng/mL to fall within the assay sensitivity range of 2 pg/mL-10 ng/mL. Optical signal intensity from assay plates were measured with spectrophotometer at wavelength 450 nm (PowerWave HT Microplate Spectrophotomer, BioTek Instruments, Inc.). Each sample was normalized against a calibration curve derived from a 5-parameter logistic fit of tPA standards ran concurrently with the samples.

[2] = cited from earlier work

## Tissue Plasminogen Activator [tPA]
[1]; all samples (solid, liquid, and RRP) at 20° C., over 24 hours
  stability by ELISA: stability preservation
[1]; lyophilized in standard glass vial at 65° C., 24 hours
  average activity retained (ELISA): 81.6%
[1]; lyophilized, loaded into RRP, kept at 65° C., 24 hours
  total initial drug stability retained, average (ELISA): 86.3%
[1]; stored in reconstituted form within glass vials at 65° C., 24 hours
  activity expressed, in average of the standard activity average (ELISA): 39.3%
[2]
  stability time in solution (liquid form): up to 8 hours
